Columns and labels:
[1] = molecular target: the molecule itself; experiment: SEC-MALS; after heat treatment at 42 °C for 30 min; 100 μL of MBP-full length HSF5 (12.6 μM) or HSF5-DBD (26.6 μM) injected; PROTEIN KW-803 column; 25 mM HEPES/KOH pH 7.2, 150 mM KCl
[2] = molecular target: T1, HSF5 N-terminal protein (HSF5-DBD) (Mus musculus, UniProt Q5ND04 1-209); experiment: EMSA; 0.04 pmol probe, protein/DNA molar ratio 15.6-250; three shifted bands; 20 mM Tris-HCl pH 8.0, 100 mM NaCl, 2 mM MgCl2, 10 ul, 25 C, 10 min; 8% polyacrylamide gel in Tris-borate pH 8.3, 2 mM EDTA; settings: protein: recombinant; tags: His (pET19b, E. coli; Ni-NTA purified); label: 32P (Klenow, [a-32P]dCTP); 5' overhang 3 nt (AGG) on both strands before Klenow labelling
T1 sequence: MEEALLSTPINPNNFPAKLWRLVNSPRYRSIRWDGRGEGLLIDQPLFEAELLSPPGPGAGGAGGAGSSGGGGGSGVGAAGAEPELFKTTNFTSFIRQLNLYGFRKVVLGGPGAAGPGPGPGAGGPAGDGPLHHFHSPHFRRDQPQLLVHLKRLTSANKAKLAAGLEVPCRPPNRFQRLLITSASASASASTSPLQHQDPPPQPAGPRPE

[3] = molecular target: T1, HSF5 N-terminal protein (HSF5-DBD); experiment: competition; 1 uM protein, 0.04 pmol labeled T probe, 1-125 fold excess competitor; 20 mM Tris-HCl pH 8.0, 100 mM NaCl, 2 mM MgCl2, 10 ul, 25 C, 10 min; 8% polyacrylamide gel in Tris-borate pH 8.3, 2 mM EDTA; settings: protein: recombinant; tags: His (pET19b, E. coli; Ni-NTA purified); 5' overhang 3 nt (AGG) on both strands
[4] = molecular target: T1, HSF5 N-terminal protein (HSF5-DBD); experiment: EMSA; 0.04 pmol probe, protein/DNA molar ratio 15.6-250; shifts completely abolished; 20 mM Tris-HCl pH 8.0, 100 mM NaCl, 2 mM MgCl2, 10 ul, 25 C, 10 min; 8% polyacrylamide gel in Tris-borate pH 8.3, 2 mM EDTA; settings: protein: recombinant; tags: His (pET19b, E. coli; Ni-NTA purified); label: 32P (Klenow, [a-32P]dCTP); 5' overhang 3 nt (AGG) on both strands before Klenow labelling
[5] = molecular target: T1, HSF5 N-terminal protein (HSF5-DBD); experiment: competition; 1 uM protein, 0.04 pmol labeled T probe, 1-125 fold excess competitor; did not compete; 20 mM Tris-HCl pH 8.0, 100 mM NaCl, 2 mM MgCl2, 10 ul, 25 C, 10 min; 8% polyacrylamide gel in Tris-borate pH 8.3, 2 mM EDTA; settings: protein: recombinant; tags: His (pET19b, E. coli; Ni-NTA purified); 5' overhang 3 nt (AGG) on both strands

B1: His-MBP-fused full-length HSF5 protein (natural protein, mouse, UniProt Q5ND04 1-624, looked up)
chain: MEEALLSTPINPNNFPAKLWRLVNSPRYRSIRWDGRGEGLLIDQPLFEAELLSPPGPGAGGAGGAGSSGGGGGSGVGAAGAEPELFKTTNFTSFIRQLNLYGFRKVVLGGPGAAGPGPGPGAGGPAGDGPLHHFHSPHFRRDQPQLLVHLKRLTSANKAKLAAGLEVPCRPPNRFQRLLITSASASASASTSPLQHQDPPPQPAGPRPEQHGPVAVGQFHRSFRRDNLSPYSYVSTSSHNHSAFPLKGLDRTPIPPRTWQNSLGMHPGQVETSPTFSDKGVPFPVLQRFPTEVTYTLQPSATSVHVQQGPQTMVSSSQKYSNYTPSAQYSQAYYPTAVLQCCSPPTHMDALSSCVTPTASSYAHCNYFQNPPMQSSYPVEFLPSNWPCSATDENKKTEVNLEAVFQIVDELHSSPKLEMVKVEPVETQCPSSQANRGQHILPNANSSNPSSTSQASQLEPLTPVGSDITSFVVGTEQAITCSLPQSPEYIYTIHTAQPLENSTMQESATIQQTHVKLKEQLNHNPSPSSVVFVQEGLPFSTPQVDSSIKCQTNPSENILPSEQMGFLISEMGPANKSTKDTGLSTPARYRERRSNSQGKSPDLHLLVDVACKQEHFPKEEELKE
notes: Heat shock transcription factor 5 (HSF5), mouse, full length; A tobacco etch virus protease cleavage site lies between His6-MBP and HSF5; the fusion was not cleaved for SEC-MALS; also called MBP-full length HSF5; His-MBP-full length HSF5; source: pMAL-c6T construct, purified (HisTrap HP, gel filtration on Superdex 200 pg 16/600); not shown: His6, N-terminal, kept; MBP, N-terminal, kept
[1]
  binding result: binds

B2: HSF5-EMSA target (T) probe (dsDNA)
DNA 1: AGGGCATAGATATGGAACTCTCTTAGAACTCTCTTAGAACTTACTACTG
DNA 2: AGGCAGTAGTAAGTTCTAAGAGAGTTCTAAGAGAGTTCCATATCTATGC
[2]
  binding result: binds

B3: unlabeled target (T) competitor (dsDNA)
DNA 1: AGGGCATAGATATGGAACTCTCTTAGAACTCTCTTAGAACTTACTACTG
DNA 2: AGGCAGTAGTAAGTTCTAAGAGAGTTCTAAGAGAGTTCCATATCTATGC
[3]
  binding result: binds

B4: HSF5-EMSA mutant (M) probe (dsDNA)
DNA 1: AGGGCATAGATAACCTTGAGTCTATCTTGAGTCTATCTTGAAACTACTG
DNA 2: AGGCAGTAGTTTCAAGATAGACTCAAGATAGACTCAAGGTTATCTATGC
[4]
  binding result: no binding

B5: unlabeled mutant (M) competitor (dsDNA)
DNA 1: AGGGCATAGATAACCTTGAGTCTATCTTGAGTCTATCTTGAAACTACTG
DNA 2: AGGCAGTAGTTTCAAGATAGACTCAAGATAGACTCAAGGTTATCTATGC
[5]
  binding result: no binding

— publication PMC11059408, “Atypical heat shock transcription factor HSF5 is critical for male meiotic prophase under non-stress conditions” (Nature Communications, 2023)
